The target in the experiment is TubY C-terminal domain (BcYCΔ; residues 107-182) of pBc10987 from Bacillus cereus (Bacillus cereus (plasmid pBc10987)). As to the kind of experiment: crystal structure; Se-substituted BcYCΔ at 1.4 mM in 10 mM Tris pH 8.0, 0.1 M NaCl, 3 mM DTT; sitting drop, 20 °C, 0.1 M HEPES pH 7.5, 0.2 M MgCl2, 30% PEG400; 2.6 Å; four monomers in the asymmetric unit.

What is called stoichiometry N is a count of units in the complex or per binding partner. “TubY C-terminal domain (BcYCΔ; residues 107-182) of pBc10987 from Bacillus cereus (domain or fragment)” returned a stoichiometry N of 4.

These data come from publication PMC7762940.
